In publication PMC8528823 (2021):

Target: SARS-CoV-2 WT RBD (SARS-CoV-2, UniProt P0DTC2 319-541)
Assay: SPR

B1: Mouse Fc (mFc) tagged mink ACE2 (Fc fusion)
chain: QSTTEDLAKTFLEKFNYEAEELSYQNSLASWNYNTNITDENIQKMNIAGAKWSAFYEEESQHAKTYPLEEIQDPIIKRQLRALQQSGSSVLSADKRERLNTILNAMSTIYSTGKACNPNNPQECLLLEPGLDDIMENSKDYNERLWAWEGWRSEVGKQLRPLYEEYVALKNEMARANNYEDYGDYWRGDYEEEWADGYNYSRNQLIEDVEHTFTQIKPLYEHLHAYVRAKLMDAYPSRISPTGCLPAHLLGDMWGRFWTNLYPLMVPFGQKPNIDVTDAMVNQSWDARRIFKEAEKFFVSVGLPNMTEGFWQNSMLTEPGDNRKVVCHPTAWDLGKHDFRIKMCTKVTMDDFLTAHHEMGHIQYDMAYAAQPFLLRNGANEGFHEAVGEIMSLSAATPNHLKNIGLLPPDFSEDSETDINFLLKQALTIVGTLPFTYMLEKWRWMVFKGEIPKEQWMQKWWEMKRDIVGVVEPLPHDETYCDPAALFHVANDYSFIRYYTRTIYQFQFQEALCQIAKHEGPLYKCDISNSREAGQKLHEMLSLGRSKPWTFALERVVGAKTMDVRPLLNYFEPLFTWLKEQNRNSFVGWNTDWSPYADQSIKVRISLKSALGEKAYEWNDNEMYFFQSSIAYAMREYFSKVKKQTIPFVDKDVRVSDLKPRISFNFIVTSPENMSDIIPRADVEEAIRKSRGRINDAFRLDDNSLEFLGIQPTLEPPYQPPVT
koff: 1.65 s⁻¹
